According to US20140086913A1 (Gilead, published 2014):

Columns and labels:
[1] = target: human DDR1 (isoform B) stably expressed on HEK293 cells (human) (UniProt Q08345); test: flow cytometry, HEK293/hDDR1
[2] = target: T1, DDR1ECD-Fc (R&D Systems, Catalog #2396-DR) (human, UniProt Q08345 21-416); test: ELISA, coated antigen, apparent KD; human ECD-DDR1-Fc coated on the plate, not the His-tagged or mouse antigen
T1 construct: range 21-416; construct as described for the bought immunogen; also called human ECD-DDR1-Fc; Fc-ECD-DR1; not shown: human IgG1, Pro100-Lys330
Experimental: In this study, ELISA was used to determine the affinity of murine anti-DDR1 monoclonal antibodies to the extracellular domain (ECD) of either human or murine DDR1. A 96-well MaxiSorb ELISA plates (Nunc) were coated with 2 μg/mL of one of three purified recombinant tagged proteins: human ECD-DDR1-His protein, human ECD-DDR1-Fc, or mouse ECD-DDR1-Fc overnight at 4° C. The next day, the plates were blocked with 5% bovine serum albumin (BSA, Jackson Immunoresearch) prior to the addition of serially diluted anti-DDR1 monoclonal antibodies. Antibodies were incubated for 1 hr at room temperature. The binding of antibody to the antigen was detected by incubating samples with anti-mouse IgG-HRP (horse radish peroxidase) secondary detection antibody (Jackson Immunoresearch) for 1 hr. After a washing step, 3,3′,5,5″-tetramethylbenzidine (TMB) reagent was added for HRP to produce a colorimetric signal. The reaction was stopped by addition of 1M hydrochloric acid after 2 minutes and measured for absorbance (optical density, OD) at 450λ on a Molecular Devices plate reader. The OD values were plotted against antibody concentration and fitted using a using 4-parameter logistic equation in SoftMax software (Molecular Devices). The apparent affinity constant (KD) was taken from the C-parameter of the equation (y=(A−D)/(1+(x/C)̂B)+D). […]

[3] = target: T2, human DDR2 stably expressed on HEK293 cells (human, UniProt Q16832 22-855); test: flow cytometry, HEK293/hDDR2
T2 construct: whole, on cells; also called hDDR2
T2 sequence (looked up): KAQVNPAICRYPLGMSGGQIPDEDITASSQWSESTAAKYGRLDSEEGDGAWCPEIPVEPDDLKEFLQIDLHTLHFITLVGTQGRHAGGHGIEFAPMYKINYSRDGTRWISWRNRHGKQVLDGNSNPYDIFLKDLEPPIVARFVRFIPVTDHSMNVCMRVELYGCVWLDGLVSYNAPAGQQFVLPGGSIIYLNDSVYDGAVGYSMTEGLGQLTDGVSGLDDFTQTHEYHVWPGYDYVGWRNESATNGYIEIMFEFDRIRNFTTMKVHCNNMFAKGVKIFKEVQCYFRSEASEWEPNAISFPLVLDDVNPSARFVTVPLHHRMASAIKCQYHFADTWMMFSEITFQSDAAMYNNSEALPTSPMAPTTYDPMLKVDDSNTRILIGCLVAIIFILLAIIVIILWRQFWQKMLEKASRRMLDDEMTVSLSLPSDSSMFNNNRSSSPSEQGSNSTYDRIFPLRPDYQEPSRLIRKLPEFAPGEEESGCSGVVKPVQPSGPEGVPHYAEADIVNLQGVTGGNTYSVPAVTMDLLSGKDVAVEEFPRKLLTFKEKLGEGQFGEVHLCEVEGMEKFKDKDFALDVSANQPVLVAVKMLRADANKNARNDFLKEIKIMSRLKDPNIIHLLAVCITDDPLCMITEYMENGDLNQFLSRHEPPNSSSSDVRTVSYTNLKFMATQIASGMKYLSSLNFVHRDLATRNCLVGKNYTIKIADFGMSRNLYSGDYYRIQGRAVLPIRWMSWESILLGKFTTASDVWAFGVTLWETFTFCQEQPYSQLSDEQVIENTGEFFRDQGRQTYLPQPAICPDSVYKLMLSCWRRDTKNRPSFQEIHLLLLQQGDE
In short: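 Anti-DDR1 mAbs or isotype controls (2 μg per 1×10⁶ cells) were incubated with the stably transfected HEK293 cells at 4 °C for 1 hr, then detected with anti-IgG-PE at 4 °C for 1 hr. Binding was read as flow-cytometry MFI, with vector-only HEK293 background subtracted.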

[4] = target: DDR1 endogenously expressed on human cancer cell lines (T47D, HCT-116, A431) (human) (UniProt Q08345); test: flow cytometry, HCT116 cells
mouse ECD-DDR1-Fc = target: T3, mouse ECD-DDR1-Fc (mouse; human, UniProt Q03146 22-414); test: ELISA, coated antigen
T3 construct: also called mouse DDR1-ECD; wild-type mouse DDR1-ECD; not shown: human IgG1 Fc of the vector pFuse-hIgG1-Fc1 (Invivogen)
T3 sequence: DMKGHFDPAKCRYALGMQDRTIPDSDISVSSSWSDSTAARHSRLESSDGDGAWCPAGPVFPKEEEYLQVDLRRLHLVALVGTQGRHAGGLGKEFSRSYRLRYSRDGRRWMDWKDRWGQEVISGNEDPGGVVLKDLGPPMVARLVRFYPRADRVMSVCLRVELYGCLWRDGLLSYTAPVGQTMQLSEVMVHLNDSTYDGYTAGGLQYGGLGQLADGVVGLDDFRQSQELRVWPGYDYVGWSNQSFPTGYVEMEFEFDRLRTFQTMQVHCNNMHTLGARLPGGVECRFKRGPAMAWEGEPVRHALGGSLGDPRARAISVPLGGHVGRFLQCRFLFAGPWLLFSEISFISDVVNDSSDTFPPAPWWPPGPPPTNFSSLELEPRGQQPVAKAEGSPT
Experimental: In this study, ELISA was used to determine the affinity of murine anti-DDR1 monoclonal antibodies to the extracellular domain (ECD) of either human or murine DDR1. A 96-well MaxiSorb ELISA plates (Nunc) were coated with 2 μg/mL of one of three purified recombinant tagged proteins: human ECD-DDR1-His protein, human ECD-DDR1-Fc, or mouse ECD-DDR1-Fc overnight at 4° C. The next day, the plates were blocked with 5% bovine serum albumin (BSA, Jackson Immunoresearch) prior to the addition of serially diluted anti-DDR1 monoclonal antibodies. Antibodies were incubated for 1 hr at room temperature. The binding of antibody to the antigen was detected by incubating samples with anti-mouse IgG-HRP (horse radish peroxidase) secondary detection antibody (Jackson Immunoresearch) for 1 hr. After a washing step, 3,3′,5,5″-tetramethylbenzidine (TMB) reagent was added for HRP to produce a colorimetric signal. The reaction was stopped by addition of 1M hydrochloric acid after 2 minutes and measured for absorbance (optical density, OD) at 450λ on a Molecular Devices plate reader. The OD values were plotted against antibody concentration and fitted using a using 4-parameter logistic equation in SoftMax software (Molecular Devices). The apparent affinity constant (KD) was taken from the C-parameter of the equation (y=(A−D)/(1+(x/C)̂B)+D). The apparent affinity constants were summarized (in some cases shown as average values) in Table 10 below. Lower value indicates higher binding affinity of the antibody to the antigen.

[5] = target: DDR1 with a ProLink Tag (PK) in engineered U20S cells (DiscoveRx), Q08345; test: cell-based or functional assay
[6] = target: DDR1 endogenously expressed on human cancer cell lines (T47D, HCT-116, A431) (human) (UniProt Q08345); test: flow cytometry, T47D cells
[7] = target: DDR1 endogenously expressed on human cancer cell lines (T47D, HCT-116, A431) (human) (UniProt Q08345); test: cell-based or functional assay
[8] = target: T4, human ECD-DDR1-His protein (human, UniProt Q08345 21-416); test: ELISA, coated antigen, apparent KD
T4 construct: also called huDDR1-ECD-His; DDR1ECD-6Xhis; not shown: His tag
In short: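 Plates coated overnight at 4° C with 2 μg/mL purified tagged DDR1 ECD protein, BSA-blocked; serially diluted murine anti-DDR1 mAbs bound 1 hr at room temperature, detected with anti-mouse IgG-HRP and TMB (OD 450). Apparent KD taken as C-parameter of 4-parameter logistic fit of OD versus antibody concentration.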

human DDR1 (isoform B) stably expressed on HEK293 cells (human), sequence (Q08345 19-913): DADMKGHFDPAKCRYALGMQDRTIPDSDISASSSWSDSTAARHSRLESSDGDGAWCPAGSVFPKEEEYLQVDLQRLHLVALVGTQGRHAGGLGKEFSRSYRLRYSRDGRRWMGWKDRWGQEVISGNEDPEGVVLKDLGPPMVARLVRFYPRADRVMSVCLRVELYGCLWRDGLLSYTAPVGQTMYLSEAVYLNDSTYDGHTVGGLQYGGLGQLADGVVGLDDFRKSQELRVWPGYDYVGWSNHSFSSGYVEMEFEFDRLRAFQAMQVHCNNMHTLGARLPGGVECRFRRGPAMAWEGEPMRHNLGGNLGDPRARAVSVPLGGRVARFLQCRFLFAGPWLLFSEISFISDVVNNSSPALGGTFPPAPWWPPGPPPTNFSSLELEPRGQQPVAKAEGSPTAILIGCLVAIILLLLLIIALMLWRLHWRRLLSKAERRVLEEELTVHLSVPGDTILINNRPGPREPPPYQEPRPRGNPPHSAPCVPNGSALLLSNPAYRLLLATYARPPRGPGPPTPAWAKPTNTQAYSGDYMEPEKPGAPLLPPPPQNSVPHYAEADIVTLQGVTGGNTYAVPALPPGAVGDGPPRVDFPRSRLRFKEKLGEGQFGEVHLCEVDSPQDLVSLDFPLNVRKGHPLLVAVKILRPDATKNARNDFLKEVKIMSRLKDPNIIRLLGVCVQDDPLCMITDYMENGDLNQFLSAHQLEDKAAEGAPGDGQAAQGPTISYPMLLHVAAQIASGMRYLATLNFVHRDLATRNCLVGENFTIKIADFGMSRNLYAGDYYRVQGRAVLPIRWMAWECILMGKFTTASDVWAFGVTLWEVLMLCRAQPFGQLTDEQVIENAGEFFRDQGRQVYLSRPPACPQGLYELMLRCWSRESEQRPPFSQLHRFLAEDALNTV

MFI [1]: 7240 MFI
Kd [2]: 0.268 nM
MFI [3]: 170 MFI
MFI [4]: 1010 MFI
binding result (mouse ECD-DDR1-Fc): no binding
Mean EC50, DDR1 Tyr513 phosphorylation assay (U20S) [5]: 4.5 nM
MFI [6]: 3590 MFI
EC50, DDR1 phospho-specific ELISA (T47D) [7]: 1.07 nM
EC50, cluster formation assay (A431 cells) [7]: 9.72 nM
Maximal inhibition, DDR1 phospho-specific ELISA (T47D) [7]: 100%
NPI of cluster formation at 66 nM (A431 cells) [7]: 102%
Kd [8]: 0.233 nM
B1: AB2002 (antibody, V domains shown)
VH: EVNLVESGGGLVKPGGSLKLSCAASGFTFSTYAMSWVRQTPEKRLEWVASISSGGITHYPDSMKGRFTVSRDNARNILYLQMRSLRSEDTAKYYCARGRSSMIPDYWGQGTSVSVSS
VL: DIVMTQSHKFMSTSVGDRVSITCKASQDVGTAVAWYQQKPGQSPKLLIYWASTRHTGVPDRFTGSGSGTDFTLTISNVQSEDLADYFCQQYSTYPLTFGAGTKLELKR
notes: mouse hybridoma mAb
